Data reported in patent US9994830B2, “Methods for modulating cyclic nucleotide-mediated signaling in cardiac myocytes and compositions” (The United States of America as Represented by the …, priority 2014, dated 2018).
Positions count from the first letter of the chain named. Names may count otherwise. One block for each molecule: values may come before it.

Assays:
[1] = tested on: neonatal rat ventricular myocytes; test: Hypertrophy of neonatal rat ventricular myocytes (PDE3 inhibitor treatment or transfection with dominant-negative constructs, with or without norepinephrine); format: cell-based
Excerpt: FIG. 5. Anti-hypertrophic actions of PDE3A1-selective targeting in neonatal rat ventricular myocytes.
In contrast, expression of the PDE3A1 dominant negative has no pro-hypertrophic effect, and actually blocks the hypertrophic responses to norepinephrine.
In neonatal rat ventricular myocytes, conventional PDE3 inhibition promotes cellular hypertrophy, which may be associated with adverse consequences in heart failure. We questioned what effect PDE3A1-selective inhibition would have. […] The F1004A substitution is a change in the amino acid sequence of PDE3A1 at amino acid position 1004 from a phenylalanine to an alanine. We transfected neonatal rat ventricular myocytes with this dominant-negative construct to competitively block the protein-protein interactions that localize PDE3A1 to specific intracellular microdomains. […] To our knowledge, this is the first direct evidence that conventional PDE3 inhibition and isoform-selective targeting have different effects in cardiac myocytes, and that some of the adverse consequences of nonselective PDE3 inhibition may be averted by isoform-selective targeting involving protein-protein interactions.

rSERCA2 = molecular target: T1, rSERCA2 (Homo sapiens, UniProt P16615); test: Co-immunoprecipitation of Flag-tagged rhPDE3A variants and rSERCA2 after incubation with or without rPKAc; format: binding; details: for PKA-stimulated (phosphorylation-dependent) interaction with SERCA2: serine-to-alanine mutants of rhPDE3A1, 50 units rPKAc, co-IP
T1 construct: purchased Abnova
T1 sequence (P16615 whole entry): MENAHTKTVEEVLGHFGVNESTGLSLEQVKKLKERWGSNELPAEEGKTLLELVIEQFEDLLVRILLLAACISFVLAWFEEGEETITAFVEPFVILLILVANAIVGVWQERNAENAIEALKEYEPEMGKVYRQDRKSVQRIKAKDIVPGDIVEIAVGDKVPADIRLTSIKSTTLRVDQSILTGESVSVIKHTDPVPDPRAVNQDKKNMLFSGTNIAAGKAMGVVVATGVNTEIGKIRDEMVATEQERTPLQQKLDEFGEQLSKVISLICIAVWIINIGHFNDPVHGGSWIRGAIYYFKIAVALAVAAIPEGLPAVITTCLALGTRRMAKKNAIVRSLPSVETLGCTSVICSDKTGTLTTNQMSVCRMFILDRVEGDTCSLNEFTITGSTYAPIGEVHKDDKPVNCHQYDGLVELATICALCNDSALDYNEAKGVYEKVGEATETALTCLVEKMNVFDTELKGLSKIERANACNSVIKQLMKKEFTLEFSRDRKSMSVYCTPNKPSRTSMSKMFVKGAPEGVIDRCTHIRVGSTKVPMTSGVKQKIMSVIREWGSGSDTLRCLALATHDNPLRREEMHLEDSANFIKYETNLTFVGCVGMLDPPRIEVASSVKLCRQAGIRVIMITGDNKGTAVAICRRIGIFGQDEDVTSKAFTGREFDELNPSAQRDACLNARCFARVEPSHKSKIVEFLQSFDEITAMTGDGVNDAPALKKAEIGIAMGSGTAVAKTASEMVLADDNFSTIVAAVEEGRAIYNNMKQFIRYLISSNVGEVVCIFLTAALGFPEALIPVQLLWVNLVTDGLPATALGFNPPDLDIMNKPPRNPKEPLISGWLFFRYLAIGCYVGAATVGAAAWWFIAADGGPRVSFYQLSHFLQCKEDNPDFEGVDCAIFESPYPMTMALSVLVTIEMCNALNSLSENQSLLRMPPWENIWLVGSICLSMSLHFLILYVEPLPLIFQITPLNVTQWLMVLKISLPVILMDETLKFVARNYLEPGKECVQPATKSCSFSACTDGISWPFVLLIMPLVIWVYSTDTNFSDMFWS
Excerpt: FIG. 11 a-d. rPKAc phosphorylates rhPDE3A and increases its interactions rSERCA2. A. Schemes representing PDE3A1 [NHR1: trans-membrane domain (obligatory membrane insertion domain); NHR2: membrane association domain; CCR: conserved C-terminal catalytic region; P1-4: predicted PKA phosphorylation sites; rhPDE3A and truncated mutants (PDE3A2, PDE3A-A510, PDE3A-RD), and rSERCA2 (1042 amino acids, 3-77 cation transporter N-terminal; 93-341, E1-E2 ATPase; 345-724, haloacid dehydrogenase like hydrolase; 819-991, cation transporter ATPase C-terminus). B. Putative PKA phosphorylation sites of PDE3A designated with asterisks. C-D. Purified rSERCA2 (150 ng) (Abnova) and 50 units of Flag-tagged rhPDE3A1 truncated mutants [rhPDE3A2, rhPDE3A-A510, and similarly expressed rhPDE3A-RD (aa 146-484)](FIG. 11D) or mutants lacking the PKA putative phosphorylation site mutants of rhPDE3A1 [Ser292/293A (M1), S312A (M2), S428A (M3), S438A (M4), S292A/293A/312A/438A (M5)](FIG. 11C) were incubated with or without 50 units of rPKAc at 30° C. for 30 min and 5 mM MgCl2 in phosphorylation buffer. Proteins were immunoprecipitated with anti-Flag antibodies and immunoblotted with anti-SERCA2 (upper panel), or anti-Flag (middle panel). Lower panel: input control (SERCA2). Shown are representative blots from three independent experiments. (RD: regulatory domain; AA: amino acid).
Flag-tagged rhPDE3A1 and its phosphorylation site mutants [rhPDE3A1-S292A/293A (M1), rhPDE3A1-S312A (M2), rhPDE3A1-S428A (M3), rhPDE3A1-S438A (M4), rhPDE3A1-S292A/293A/312A/438A (M5) open reading frame [accession #NP_000912] was synthesized by Genscript, Inc (Piscataway, N.J.), subcloned into pAcSG2 baculoviral expression vector. Flag-tagged rhPDE3A variants and phosphorylation site mutants were expressed in SF21 cells [(10-20)×106 SF21 cells/75-cm2 flask] as described (19,20). SF21 cells were harvested, sedimented (10 min, 1000×g, 4° C.), washed twice with ice-cold PBS, resuspended, homogenized (in a Dounce homogenizer) in buffer B and sonicated […]. A comparison of the translated sequences of human AKAP18γ (AC NP_057461 and AK300587; 348 aa residues) and rat AKAP18δ (3) (AC QJP77; 352 aa residues) indicate that eight of the first twelve aa residues of human AKAP18γ and rat AKAP18δ are identical, and that the proteins are homologous (˜74% aa identity). SF21 cell extracts, which contained his-tagged-rAKAP18δ, were prepared as described above. Flag-tagged rhPDE3A1 (usually 50 arbitrary (u) units) was incubated (30 min, 30° C.) with rAKAP18δ (200 μl, containing 50 ng of recombinant protein), with or without different concentrations of rPKAc (final volume, 300 μl) in buffer B containing 2 mM DTT and 200 μM ATP. Reactions were stopped by dilution of reaction mixtures to 1.0 ml with buffer B containing 1 mg/ml SF21 cell lysates, and cleared as described above (cf ‘Immunoprecipitation and immunoblotting’ subsection). His-tagged rAKAP18δ was immunoprecipitated with anti-his Mab Mag-beads (Genscript). Anti-his Mab Mag beads-bound immunoprecipitates were washed, collected, and anti-his Mab Mag-beads-bound proteins were eluted by boiling in Laemmli's SDS buffer (100 μl) and samples (15 μl) of immunoprecipitated proteins as well as of reaction mixtures (‘input proteins’) were immunoblotted with indicated antibodies as described above.

B1: PDE3A1-F1004A: RFP-tagged PDE3A1 construct with F1004A substitution in the C-terminus yielding a catalytically inactive, dominant-negative protein (SEQ ID NO:2) (protein, listed as Homo sapiens)
chain: MAVPGDAARVRDKPVHSGVSQAPTAGRDCHHRADPASPRDSGCRGCWGDLVLQPLRSSRKLSSALCAGSLSFLLALLVRLVRGEVGCDLEQCKEAAAAEEEEAAPGAEGGVFPGPRGGAPGGGARLSPWLQPSALLFSLLCAFFWMGLYLLRAGVRLPLAVALLAACCGGEALVQIGLGVGEDHLLSLPAAGVVLSCLAAATWLVLRLRLGVLMIALTSAVRTVSLISLERFKVAWRPYLAYLAGVLGILLARYVEQILPQSAEAAPREHLGSQLIAGTKEDIPVFKRRRRSSSVVSAEMSGCSSKSHRRTSLPCIPREQLMGHSEWDHKRGPRGSQSSGTSITVDIAVMGEAHGLITDLLADPSLPPNVCTSLRAVSNLLSTQLTFQAIHKPRVNPVTSLSENYTCSDSEESSEKDKLAIPKRLRRSLPPGLLRRVSSTWTTTTSATGLPTLEPAPVRRDRSTSIKLQEAPSSSPDSWNNPVMMTLTKSRSFTSSYAISAANHVKAKKQSRPGALAKISPLSSPCSSPLQGTPASSLVSKISAVQFPESADTTAKQSLGSHRALTYTQSAPDLSPQILTPPVICSSCGRPYSQGNPADEPLERSGVATRTPSRTDDTAQVTSDYETNNNSDSSDIVQNEDETECLREPLRKASACSTYAPETMMFLDKPILAPEPLVMDNLDSIMEQLNTWNFPIFDLVENIGRKCGRILSQVSYRLFEDMGLFEAFKIPIREFMNYFHALEIGYRDIPYHNRIHATDVLHAVWYLTTQPIPGLSTVINDHGSTSDSDSDSGFTHGHMGYVFSKTYNVTDDKYGCLSGNIPALELMALYVAAAMHDYDHPGRTNAFLVATSAPQAVLYNDRSVLENHHAAAAWNLFMSRPEYNFLINLDHVEFKHFRFLVIEAILATDLKKHFDFVAKFNGKVNDDVGIDWTNENDRLLVCQMCIKLADINGPAKCKELHLQWTDGIVNEFYEQGDEEASLGLPISPFMDRSAPQLANLQESAISHIVGPLCNSYDSAGLMPGKWVEDSDESGDTDDPEEEEEEAPAPNEEETCENNESPKKKTFKRRKIYCQITQHLLQNHKMWKKVIEEEQRLAGIENQSLDQTPQSHSSEQIQAIKEEEEEKGKPRGEEIPTQKPDQ
modifications: RFP tag; (1)..(1141) conceptual translation of the longest ORF of the PDE3A gene with a mutation at amino acid position 1004 in which phenylalanine is changed to alanine; presence of alanine at amino acid 1004 inactivates phosphodiesterase activity
hypertrophic response to norepinephrine ([1]; neonatal rat ventricular myocytes transfected with construct, norepinephrine): blocked the hypertrophic response to norepinephrine
cellular hypertrophy ([1]; neonatal rat ventricular myocytes, treatment or transfection alone): did not induce cellular hypertrophy

B3: M4: Flag-tagged rhPDE3A1 phosphorylation site mutant S438A (protein, UniProt Q14432 1-1141, looked up, variant S438A)
cGMP-inhibited 3',5'-cyclic …: B1 chain with S438A, A1004F
modifications: Flag tag
notes: Flag-tagged rhPDE3A1 phosphorylation site mutant S438A
PKA-stimulated (phosphorylation-dependent) interaction with SERCA2 (rSERCA2): had no effect

B6: M1: Flag-tagged rhPDE3A1 phosphorylation site mutant S292A/293A (protein, UniProt Q14432 1-1141, looked up, variant S292A S293A)
cGMP-inhibited 3',5'-cyclic …: B1 chain with S292A, S293A, A1004F
modifications: Flag tag
notes: Flag-tagged rhPDE3A1 phosphorylation site mutant S292A/293A
PKA-stimulated (phosphorylation-dependent) interaction with SERCA2 (rSERCA2): markedly diminished

B7: rPDE3A-RD: construct containing only the N-terminal portion of PDE3A1 (aa 146-484), regulatory domain (protein)
chain: MGLYLLRAGVRLPLAVALLAACCGGEALVQIGLGVGEDHLLSLPAAGVVLSCLAAATWLVLRLRLGVLMIALTSAVRTVSLISLERFKVAWRPYLAYLAGVLGILLARYVEQILPQSAEAAPREHLGSQLIAGTKEDIPVFKRRRRSSSVVSAEMSGCSSKSHRRTSLPCIPREQLMGHSEWDHKRGPRGSQSSGTSITVDIAVMGEAHGLITDLLADPSLPPNVCTSLRAVSNLLSTQLTFQAIHKPRVNPVTSLSENYTCSDSEESSEKDKLAIPKRLRRSLPPGLLRRVSSTWTTTTSATGLPTLEPAPVRRDRSTSIKLQEAPSSSPDSWNNPVM
co-immunoprecipitation of rSERCA2 with construct (rSERCA2; truncated rhPDE3A constructs): co-immunoprecipitated

More lines, now with the values ahead:

PKA-stimulated (phosphorylation-dependent) interaction with SERCA2 (rSERCA2): slightly decreased
B2: M2: Flag-tagged rhPDE3A1 phosphorylation site mutant S312A (protein, UniProt Q14432 1-1141, looked up, variant S312A)
cGMP-inhibited 3',5'-cyclic …: B1 chain with S312A, A1004F
modifications: Flag tag
notes: Flag-tagged rhPDE3A1 phosphorylation site mutant S312A

PKA-stimulated (phosphorylation-dependent) interaction with SERCA2 (rSERCA2): markedly diminished
B4: M5: Flag-tagged rhPDE3A1 phosphorylation site mutant S292A/293A/312A/438A (protein, UniProt Q14432 1-1141, looked up, variant S292A S293A S312A S438A)
cGMP-inhibited 3',5'-cyclic …: B1 chain with S292A, S293A, S312A, S438A, A1004F
modifications: Flag tag
notes: Flag-tagged rhPDE3A1 phosphorylation site mutant S292A/293A/312A/438A

PKA-stimulated (phosphorylation-dependent) interaction with SERCA2 (rSERCA2): slightly decreased
B5: M3: Flag-tagged rhPDE3A1 phosphorylation site mutant S428A (protein, UniProt Q14432 1-1141, looked up, variant S428A)
cGMP-inhibited 3',5'-cyclic …: B1 chain with S428A, A1004F
modifications: Flag tag
notes: Flag-tagged rhPDE3A1 phosphorylation site mutant S428A
